Consider 39 sequences from US20090018093.

The test system of the series is Immunoglobulin E (IgE) (Homo sapiens), P01854-1. Kind of series: filter. Conditions: RT.
Setting [1] is: 2'-OMe/2'-deoxy mix, 3:21 pair changed, DPBS Mg/Ca, 0.1 mg/mL BSA.

Immunoglobulin E (IgE) (Homo sapiens), P01854-1, sequence (P01854 other isoform, or with tags, fused parts or gaps): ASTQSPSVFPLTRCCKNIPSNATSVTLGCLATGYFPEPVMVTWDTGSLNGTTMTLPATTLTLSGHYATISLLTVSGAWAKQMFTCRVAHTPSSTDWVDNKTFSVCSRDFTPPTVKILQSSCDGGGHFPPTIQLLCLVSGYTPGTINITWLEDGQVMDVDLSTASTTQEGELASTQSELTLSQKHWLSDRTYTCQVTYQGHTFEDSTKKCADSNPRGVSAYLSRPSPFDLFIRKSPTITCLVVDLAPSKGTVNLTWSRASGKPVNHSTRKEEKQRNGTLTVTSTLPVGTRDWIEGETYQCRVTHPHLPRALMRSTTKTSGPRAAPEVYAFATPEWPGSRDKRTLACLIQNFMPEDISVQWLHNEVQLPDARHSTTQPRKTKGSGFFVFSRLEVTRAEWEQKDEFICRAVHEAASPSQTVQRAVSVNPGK

Turning to AGACUGGGGACCCAUGGGGGUCU [ARC1248], the Kd under setting [1] was found to be 38 nM. On the same count and under the same terms, in the case of AGACUGGGGACCCAUGGGGGUCU [ARC1249] it was 130 nM. As for “AGCCNUGGGNGACCCAUNNNGNNGNNGCUN [ARC2972]”, the Kd (ARC1666 chemistry + PS 4-5, 3' idT, DPBS Mg/Ca, BSA) was found to be 0.05 nM. Turning to AGCCUGGGGACCCAUGGGGGG [ARC2345], where the note is “ARC1666 pattern without 3' idT [dI (written G) at 16,18,20, 2'-OMe 1-5,7,10-15,17, deoxy 6,8,9,16,18-21, PS 8/9,15/16,16/17,18/19,20/21, no 3' idT], dPBS + BSA”, the Kd is 29.3 nM. With AGCCUGGGGACCCAUGGGGGGC [ARC2344], the Kd (ARC1666 pattern without 3' idT [dI (written G) at 16,18,20, 2'-OMe 1-5,7,10-15,17,22, deoxy 6,8,9,16,18-21, PS 8/9,15/16,16/17,18/19,20/21, no 3' idT], dPBS + BSA) came out at 0.41 nM. On to AGCCUGGGGACCCAUGGGGGGCU [ARC902], for which, for the setting “dRmY (2'-OMe C,U), 7-deaza-dG2 [7-deaza-dG at 2, 2'-OMe C3,C4,U5,C11,C12,C13,U15,C22,U23, A,G 2'-deoxy], DPBS Mg/Ca, 0.1 mg/mL BSA”, the Kd was 9 nM. AGCCUGGGGACCCAUGGGGGGCU [ARC903]: the Kd (dRmY (2'-OMe C,U), 7-deaza-dG6 [7-deaza-dG at 6, 2'-OMe C3,C4,U5,C11,C12,C13,U15,C22,U23, A,G 2'-deoxy], DPBS Mg/Ca, 0.1 mg/mL BSA) came to 14 nM. AGCCUGGGGACCCAUGGGGGGCU [ARC904] registered a Kd (dRmY (2'-OMe C,U), 7-deaza-dG7 [7-deaza-dG at 7, 2'-OMe C3,C4,U5,C11,C12,C13,U15,C22,U23, A,G 2'-deoxy], DPBS Mg/Ca, 0.1 mg/mL BSA) of 8 nM. On to AGCCUGGGGACCCAUGGGGGGCU [ARC905], for which the Kd (dRmY (2'-OMe C,U), 7-deaza-dG8 [7-deaza-dG at 8, 2'-OMe C3,C4,U5,C11,C12,C13,U15,C22,U23, A,G 2'-deoxy], DPBS Mg/Ca, 0.1 mg/mL BSA) came to 9 nM.

For AGCCUGGGGACCCAUGGGGGGCU [ARC906], the Kd (dRmY, 7-deaza-dG at G9 [7-deaza-dG: 9, 2'-OMe: 3-5,11-13,15,22,23, deoxy: all A,G], dPBS Ca/Mg + BSA) stood at 88 nM. Regarding AGCCUGGGGACCCAUGGGGGGCU [ARC907], the Kd (dRmY (2'-OMe C,U), 7-deaza-dG16 [7-deaza-dG at 16, 2'-OMe C3,C4,U5,C11,C12,C13,U15,C22,U23, A,G 2'-deoxy], DPBS Mg/Ca, 0.1 mg/mL BSA) came out at 22 nM. On to AGCCUGGGGACCCAUGGGGGGCU [ARC908], for which the Kd (dRmY, 7-deaza-dG at G17 [7-deaza-dG: 17, 2'-OMe: 3-5,11-13,15,22,23, deoxy: all A,G], dPBS Ca/Mg + BSA) was found to be 3 nM. With AGCCUGGGGACCCAUGGGGGGCU [ARC912], the Kd (dRmY, 7-deaza-dG at G21 [7-deaza-dG: 21, 2'-OMe: 3-5,11-13,15,22,23, deoxy: all A,G], dPBS Ca/Mg + BSA) was 9 nM. Take AGCCUGGGGACCCAUGGGGGGCU [ARC1250]: the Kd (2'-OMe C,U and A1, other A,G deoxy, 3' idT [2'-OMe: 1,3,4,5,11,12,13,15,22,23, 2'-deoxy: 2,6,7,8,9,10,14,16,17,18,19,20,21, 24 = 3' inverted dT], dPBS Ca/Mg + BSA) stood at 11 nM. AGCCUGGGGACCCAUGGGGGGCU [ARC1252]: for the setting “2'-OMe C,U and G6, other A,G deoxy, 3' idT [2'-OMe: 3,4,5,6,11,12,13,15,22,23, 2'-deoxy: 1,2,7,8,9,10,14,16,17,18,19,20,21, 24 = 3' inverted dT], dPBS Ca/Mg + BSA”, the Kd worked out at 98 nM. Take AGCCUGGGGACCCAUGGGGGGCU [ARC1253]: the Kd (2'-OMe C,U and G7, other A,G deoxy, 3' idT [2'-OMe: 3,4,5,7,11,12,13,15,22,23, 2'-deoxy: 1,2,6,8,9,10,14,16,17,18,19,20,21, 24 = 3' inverted dT], dPBS Ca/Mg + BSA) is 2 nM. Consider AGCCUGGGGACCCAUGGGGGGCU [ARC1254], for which the Kd (2'-OMe C,U and G8, other A,G deoxy, 3' idT [2'-OMe: 3,4,5,8,11,12,13,15,22,23, 2'-deoxy: 1,2,6,7,9,10,14,16,17,18,19,20,21, 24 = 3' inverted dT], dPBS Ca/Mg + BSA) worked out at 24 nM. For the setting “2'-OMe G9 and all C,U, rest 2'-deoxy, 3' idT [2'-OMe at 3,4,5,9,11,12,13,15,22,23, 3'-idT at 24], DPBS Mg/Ca, 0.1 mg/mL BSA”, AGCCUGGGGACCCAUGGGGGGCU [ARC1255] had a Kd of 8 nM. Take AGCCUGGGGACCCAUGGGGGGCU [ARC1256]: the Kd (2'-OMe C,U and A10, other A,G deoxy, 3' idT [2'-OMe: 3,4,5,10,11,12,13,15,22,23, 2'-deoxy: 1,2,6,7,8,9,14,16,17,18,19,20,21, 24 = 3' inverted dT], dPBS Ca/Mg + BSA) was found to be 0.4 nM. The sequence AGCCUGGGGACCCAUGGGGGGCU [ARC1257] returned a Kd (2'-OMe A14 and all C,U, rest 2'-deoxy, 3' idT [2'-OMe at 3,4,5,11,12,13,14,15,22,23, 3'-idT at 24], DPBS Mg/Ca, 0.1 mg/mL BSA) of 6 nM. For AGCCUGGGGACCCAUGGGGGGCU [ARC1258], the Kd (2'-OMe C,U and G16, other A,G deoxy, 3' idT [2'-OMe: 3,4,5,11,12,13,15,16,22,23, 2'-deoxy: 1,2,6,7,8,9,10,14,17,18,19,20,21, 24 = 3' inverted dT], dPBS Ca/Mg + BSA) is 15 nM. On to AGCCUGGGGACCCAUGGGGGGCU [ARC1259], for which, where the note is “2'-OMe G17 and all C,U, rest 2'-deoxy, 3' idT [2'-OMe at 3,4,5,11,12,13,15,17,22,23, 3'-idT at 24], DPBS Mg/Ca, 0.1 mg/mL BSA”, the Kd came to 5 nM. On to AGCCUGGGGACCCAUGGGGGGCU [ARC1260], for which the Kd (2'-OMe C,U and G18, other A,G deoxy, 3' idT [2'-OMe: 3,4,5,11,12,13,15,18,22,23, 2'-deoxy: 1,2,6,7,8,9,10,14,16,17,19,20,21, 24 = 3' inverted dT], dPBS Ca/Mg + BSA) amounted to 102 nM. For AGCCUGGGGACCCAUGGGGGGCU [ARC1261], the Kd (2'-OMe C,U and G19, other A,G deoxy, 3' idT [2'-OMe: 3,4,5,11,12,13,15,19,22,23, 2'-deoxy: 1,2,6,7,8,9,10,14,16,17,18,20,21, 24 = 3' inverted dT], dPBS Ca/Mg + BSA) was 63 nM. As to AGCCUGGGGACCCAUGGGGGGCU [ARC1262], the Kd (2'-OMe C,U and G20, other A,G deoxy, 3' idT [2'-OMe: 3,4,5,11,12,13,15,20,22,23, 2'-deoxy: 1,2,6,7,8,9,10,14,16,17,18,19,21, 24 = 3' inverted dT], dPBS Ca/Mg + BSA) was 32 nM. On to AGCCUGGGGACCCAUGGGGGGCU [ARC1263], for which the Kd (2'-OMe C,U and G21, other A,G deoxy, 3' idT [2'-OMe: 3-5,11-13,15,21-23, deoxy: 1,2,6-10,14,16-20, 24 = 3' inverted dT], dPBS Ca/Mg + BSA) worked out at 64 nM.

Sequence AGCCUGGGGACCCAUGGGGGGCU [ARC1264] had a Kd (2'-OMe A1,G2,G20,G21 and all C,U, rest 2'-deoxy as printed, 3' idT [2'-OMe A1,G2,C3,C4,U5,C11,C12,C13,U15,G20,G21,C22,U23, rest 2'-deoxy, 3' inverted dT at 24], DPBS Mg/Ca, 0.1 mg/mL BSA) of 47 nM.

On to AGCCUGGGGACCCAUGGGGGGCU [ARC1332], for which, under “2'-OMe G2,A10,A14 and all C,U, rest 2'-deoxy, 3' idT [2'-OMe G2,C3,C4,U5,A10,C11,C12,C13,A14,U15,C22,U23, 3' inverted dT at 24], DPBS Mg/Ca, 0.1 mg/mL BSA”, the Kd stood at 0.5 nM. As for AGCCUGGGGACCCAUGGGGGGCU [ARC1333], the Kd (2'-OMe G2,G7,G17 and all C,U, rest 2'-deoxy, 3' idT [2'-OMe G2,C3,C4,U5,G7,C11,C12,C13,U15,G17,C22,U23, 3' inverted dT at 24], DPBS Mg/Ca, 0.1 mg/mL BSA) is 1.5 nM. For the sequence AGCCUGGGGACCCAUGGGGGGCU [ARC1334], the Kd (2'-OMe G2,G7,A10,A14,G17 and all C,U, rest 2'-deoxy, 3' idT [2'-OMe G2,C3,C4,U5,G7,A10,C11,C12,C13,A14,U15,G17,C22,U23, 3' inverted dT at 24], DPBS Mg/Ca, 0.1 mg/mL BSA) turned out to be 0.3 nM. In the case of AGCCUGGGGACCCAUGGGGGGCU [ARC1548], the Kd (ARC1335 chemistry with dI2, 3' idT [2=dI (G parent), 24=3' inverted dT], DPBS Mg/Ca, 0.1 mg/mL BSA) was found to be 3.3 nM. On to AGCCUGGGGACCCAUGGGGGGCU [ARC1562], for which the Kd (ARC1335 chemistry with dI16, G17 deoxy as printed, 3' idT [16=dI (G parent), 17=deoxy G, 24=3' inverted dT], DPBS Mg/Ca, 0.1 mg/mL BSA) amounted to 0.6 nM. As for AGCCUGGGGACCCAUGGGGGGCU [ARC1563], the Kd (ARC1335 chemistry with dI17, 3' idT [17=dI (G parent), 24=3' inverted dT], DPBS Mg/Ca, 0.1 mg/mL BSA) is 2.2 nM. Regarding AGCCUGGGGACCCAUGGGGGGCU [ARC1564], the Kd (ARC1335 chemistry with dI18, 3' idT [18=dI (G parent), 24=3' inverted dT], DPBS Mg/Ca, 0.1 mg/mL BSA) was 0.5 nM. AGCCUGGGGACCCAUGGGGGGCU [ARC1565]: the Kd (ARC1335 chemistry with dI19 as printed, 3' idT [19=dI (G parent), 24=3' inverted dT], DPBS Mg/Ca, 0.1 mg/mL BSA) is 1.4 nM. For the sequence AGCCUGGGGACCCAUGGGGGGCU [ARC1566], the Kd (ARC1335 pattern with dI20, 3' idT [dI20 (inosine, parent base G), 3' inverted dT24, rest ARC1335 pattern], dPBS Ca/Mg + BSA) was 0.1 nM. In the case of AGCCUGGGGACCCAUGGGGGGCU [ARC1567], the Kd (ARC1335 pattern with dI21, 3' idT [dI21 (inosine, parent base G), 3' inverted dT24, rest ARC1335 pattern], dPBS Ca/Mg + BSA) amounted to 3.5 nM. Turning to AGCCUGGGGACCCAUGGGGGGCU [ARC2343], the Kd (ARC1666 pattern without 3' idT [dI (written G) at 16,18,20, 2'-OMe 1-5,7,10-15,17,22,23, deoxy 6,8,9,16,18-21, PS 8/9,15/16,16/17,18/19,20/21, no 3' idT], dPBS + BSA) worked out at 0.09 nM. Regarding AGCCUGGGGACCCAUGGGGGGCU [ARC2981], for the setting “ARC1666 pattern plus PS between A14 and U15, 3' idT [dI (written G) at 16,18,20, 2'-OMe 1-5,7,10-15,17,22,23, deoxy 6,8,9,16,18-21, PS 8/9,14/15,15/16,16/17,18/19,20/21, 3' inverted dT left out], dPBS Ca/Mg + BSA”, the Kd turned out to be 0.02 nM.
